Assays:
[1] = molecular target: hexahistidine-tagged soluble four-domain CD4 (UniProt P01730); test: SPR
[2] = molecular target: HIV-1 YU-2 gp120 S375A (HIV-1 YU-2); test: ITC
[3] = molecular target: HIV-1 YU-2 gp120 F210A (HIV-1 YU-2); test: SPR
[4] = molecular target: HIV-1 YU-2 gp120 T257A (HIV-1 YU-2); test: ITC
[5] = molecular target: HIV-1 YU-2 gp120 I109A (HIV-1 YU-2); test: SPR
[6] = molecular target: HIV-1 YU-2 gp120 W112A (HIV-1 YU-2); test: SPR
[7] = molecular target: wild-type HIV-1 YU-2 Env gp120, soluble monomeric (HIV-1 YU-2) (UniProt P35961); test: SPR
[8] = molecular target: HIV-1 YU-2 gp120 M426A (HIV-1 YU-2); test: SPR

## HIV-1 YU-2 gp120 S375W (natural protein)
[1]
  Kd: 3.7 nM

## peptide 1 (sequence-minimized peptide triazole Ile-Asn-Asn-Ile-X-Trp, X = ferrocenyl-triazolePro)
[2]
  dH: -9.1 kcal/mol
[3]
  IC50: 200 nM

## HIV-1 YU-2 gp120 T257A (natural protein)
[1]
  Kd: 10.2 nM

## peptide 4 (peptide 1 with N-methylated indole at Trp 6)
[4]
  dH: -11 kcal/mol
  stoichiometry N: 1.15
[2]
  dH: -9.3 kcal/mol
  stoichiometry N: 1.13

## HIV-1 YU-2 gp120 S375H (natural protein)
[1]
  Kd: 5.2 nM

## HIV-1 YU-2 gp120 I109A (natural protein)
[1]
  Kd: 6.8 nM

## HIV-1 YU-2 gp120 F210A (natural protein)
[1]
  Kd: 230 nM

## HIV-1 YU-2 gp120 M426A (natural protein)
[1]
  Kd: 59 nM

## HIV-1 YU-2 gp120 W112A (natural protein)
[1]
  Kd: 95 nM
mAb F105
  Kd: 83 nM

## HIV-1 YU-2 gp120 T257R (natural protein)
[1]
  Kd: 21 nM

## HIV-1 YU-2 gp120 S375A (natural protein)
[1]
  Kd: 6.2 nM

## peptide 2 (peptide 1 with Trp replaced by Tyr)
[5]
  IC50: 3100 nM
[6]
  IC50: > 50000 nM
[3]
  IC50: 4100 nM
[7]
  IC50: 3000 nM
[8]
  IC50: 5100 nM

Source: PMC4497506
